Article PMC5529062 (Science Advances, 2017)

Target: P22 coat protein (CP) monomers (bacteriophage P22, UniProt P26747 1-430)
Assay: SEC

Sequence of P22 coat protein (CP) monomers (P26747 whole entry): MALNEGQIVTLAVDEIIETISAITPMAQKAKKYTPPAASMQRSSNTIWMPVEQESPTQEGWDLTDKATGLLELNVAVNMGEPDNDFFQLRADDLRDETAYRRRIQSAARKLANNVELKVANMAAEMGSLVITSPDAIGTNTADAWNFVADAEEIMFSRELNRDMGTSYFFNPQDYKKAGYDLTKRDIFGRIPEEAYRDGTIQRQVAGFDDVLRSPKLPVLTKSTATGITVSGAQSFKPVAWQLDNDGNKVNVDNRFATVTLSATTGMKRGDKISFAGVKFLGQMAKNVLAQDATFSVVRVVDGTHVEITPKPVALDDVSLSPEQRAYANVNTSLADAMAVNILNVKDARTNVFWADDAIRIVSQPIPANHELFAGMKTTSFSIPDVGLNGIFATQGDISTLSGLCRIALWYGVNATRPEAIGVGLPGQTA

B1: P22 scaffolding protein (SP) (natural protein, bacteriophage P22, UniProt P26748 1-303, looked up)
chain: MEPTTEIQATEDLTLSGDHAAASADSLVVDNANDNAGQEEGFEIVLKDDETAPKQDPAKNAEFARRRIERKRQRELEQQMEAVKRGELPESLRVNPDLPPQPDINAYLSEEGLAKYDYDNSRALAAFNAANTEWLMKAQDARSNAVAEQGRKTQEFTQQSAQYVEAARKHYDAAEKLNIPDYQEKEDAFMQLVPPAVGADIMRLFPEKSAALMYHLGANPEKARQLLAMDGQSALIELTRLSERLTLKPRGKQISSAPPADQPITGDVSAANKDAIRKQMDAAASKGDVETYRKLKAKLKGIR
Does B1 bind?
Result: binds
